{
  "source": "paper doi:10.64898/2025.12.23.696179",
  "about": "(bioRxiv, 2025)",
  "biological_target": "biotinylated TGPAvi (Galaxea fascicularis (engineered …, biotin on the Avi-tag (enzymatic biotinylation with BirA)))",
  "assay": "BLI",
  "data": [
    {"binder": "Sb32 (VHH) VHH: QVQLVESGGGLVQAGGSLRLSCAASGFPVGQQKMTWYRQAPGKEREWVAAITSAGWFTHYADSVKGRFTISRDNAKNTVYLQMNSLKPEDTAVYYCTVKVGAEYAGQGTQVTVSA", "values": [
      {"measurement": "Kd", "value": 26, "unit": "nM"},
      {"measurement": "koff", "value": 0.014, "unit": "s⁻¹"},
      {"measurement": "kon", "value": 530000, "unit": "M⁻¹ s⁻¹"}
    ]}
  ]
}
